Columns and labels:
[1] = target: PASD1(2) (…) presented by the HHD chimeric monochain MHC class I molecule (human; mouse)
[2] = target: PASD1(1) (…) presented by the HHD chimeric monochain MHC class I molecule (human; mouse)
[3] = target: PASD1(1) (…) presented by the HHD chimeric monochain MHC class I molecule (human; mouse); remark: listed apart in the source
[4] = target: PASD1(1) (…) presented by the HHD chimeric monochain MHC class I molecule (human; mouse); remark: listed apart in the source

Substance: splenocytes from HHD mice vaccinated with p.DOM-PASD1(2) (cells without a defined receptor)
- IFNγ-secreting spot-forming cells ex vivo (ELISPOT) (SFCs/10^6 cells) [1]: 53

Substance: splenocytes from HHD mice vaccinated with p.DOM-PASD1FL (cells without a defined receptor)
- IFNγ-secreting spot-forming cells ex vivo (ELISPOT) (SFCs/10^6 splenocytes) [2]: 756

Substance: splenocytes from HHD mice vaccinated with p.DOM-PASD1(1) (cells without a defined receptor)
- IFNγ-secreting spot-forming cells ex vivo (ELISPOT) (SFCs/10^6 cells) [3]: 117
- specific lysis of KMS-12-HHD cells (51Cr release assay) [4]: < 40%

Source: patent US20120042399A1
